The target of this experiment is human TfR on TfR-expressing cells (human, UniProt P02786 1-760). Briefly: cell-based or functional assay.
human TfR on TfR-expressing cells, sequence (P02786 whole entry): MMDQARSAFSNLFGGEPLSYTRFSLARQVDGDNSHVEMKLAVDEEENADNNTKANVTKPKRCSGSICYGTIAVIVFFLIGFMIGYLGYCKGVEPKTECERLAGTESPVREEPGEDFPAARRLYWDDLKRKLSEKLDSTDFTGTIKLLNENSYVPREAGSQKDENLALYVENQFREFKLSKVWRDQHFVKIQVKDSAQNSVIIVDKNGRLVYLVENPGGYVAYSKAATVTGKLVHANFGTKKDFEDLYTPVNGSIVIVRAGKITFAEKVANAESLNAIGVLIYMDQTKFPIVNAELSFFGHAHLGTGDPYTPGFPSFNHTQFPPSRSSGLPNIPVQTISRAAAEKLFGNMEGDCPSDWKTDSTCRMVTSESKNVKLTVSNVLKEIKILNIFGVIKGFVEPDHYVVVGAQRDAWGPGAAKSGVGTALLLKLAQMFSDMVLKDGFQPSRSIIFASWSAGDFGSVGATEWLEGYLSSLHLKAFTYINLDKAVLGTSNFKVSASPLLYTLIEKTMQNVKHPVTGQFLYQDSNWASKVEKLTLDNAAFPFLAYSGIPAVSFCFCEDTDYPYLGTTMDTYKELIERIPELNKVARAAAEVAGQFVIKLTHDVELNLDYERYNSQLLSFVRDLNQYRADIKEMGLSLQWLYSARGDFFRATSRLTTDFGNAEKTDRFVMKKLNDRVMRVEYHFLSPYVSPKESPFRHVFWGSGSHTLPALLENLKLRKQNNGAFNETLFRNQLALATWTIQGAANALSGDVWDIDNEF

B1: TfR006 IgG antibody (antibody, V domains shown)
VH: QVQLVQSGGGVVQPGRSLRLSCAASGFPFKSYGMHWVRQAPGKGLEWVAVISFDGSSKYYADSVKGRFTISRDNSKNTLYLQMNSLRGEDTAVYYCARDSNFWSGYYSPVDVWGQGTTVTVSS
VL: NFMLTQPHSVSESPGKTVTISCTRSSGSIASNSVQWYQQRPGSAPITVIYEDTQRPSGVPDRFSGSIDSSSNSASLTISGLQTEDEADYYCQSYDSAYHWVFGGGTKLAVL
Consider B1, for which the “IC50 (ng/ml) of cell growth, A431” value worked out at 36 ng/mL; the “IC50 (ng/ml) of cell growth, A549” value was 41 ng/mL; the “IC50 (ng/ml) of cell growth, BFTC905” value amounted to 44 ng/mL; the “IC50 (ng/ml) of cell growth, DU145” value turned out to be 33 ng/mL. Moreover, the “IC50 (ng/ml) of cell growth, HT29” value came to 25 ng/mL; the “IC50 (ng/ml) of cell growth, K562” value came to 50 ng/mL; the “IC50 (ng/ml) of cell growth, KLM1” value was determined as 30 ng/mL; the “IC50 (ng/ml) of cell growth, MIAPaCa-2” value was found to be 55 ng/mL. The “IC50 (ng/ml) of cell growth, MKN45” value was 26 ng/mL; the “IC50 (ng/ml) of cell growth, MT-2” value was determined as 71 ng/mL; the “IC50 (ng/ml) of cell growth, NCI-H358” value stood at 37 ng/mL; the “IC50 (ng/ml) of cell growth, NCI-H1373” value worked out at 127 ng/mL. The “IC50 (ng/ml) of cell growth, PK45-P” value was 100 ng/mL and the “IC50 (ng/ml) of cell growth, RAMOS” value worked out at 8 ng/mL.

The values are drawn from US20140114054A1 (UNIVERSITY OF MIYAZAKI, published 2014).
